Measured values: US20240132578A1

What was measured:
Assay in all cases: cell-based or functional assay
[1] = target: HIV-1 envelope glycoprotein (Env) of isolate MGRM-C-009 (HIV-1)
[2] = target: HIV-1 MGRM-AE-003 Env (pseudovirus) (HIV-1)
[3] = target: HIV-1 envelope glycoprotein (Env) of isolate LAVI_C3 (HIV-1)
[4] = target: HIV-1 MGRM-AG-002 Env (pseudovirus) (HIV-1)
[5] = target: HIV-1 Env of isolate 93TH305, clade B (HIV-1)
[6] = target: HIV-1 93UG077 envelope (Env) on pseudovirus (HIV-1)
[7] = target: HIV-1 Env of isolate MGRM-A-013 (clade A pseudovirus) (HIV-1)
[8] = target: HIV-1 envelope glycoprotein (Env) of isolate MGRM-C-015 (HIV-1)
[9] = target: HIV-1 Env of pseudovirus MGRM-F1-016 (clade F) (HIV-1)
[10] = target: HIV-1 MGRM-AG-013 Env (pseudovirus) (HIV-1)
[11] = target: HIV-1 CMU02 envelope (Env) on pseudovirus (HIV-1)
[12] = target: HIV-1 NL43 envelope (Env) on pseudovirus (HIV-1)
[13] = target: HIV-1 MGRM-AG-008 Env (pseudovirus) (HIV-1)
[14] = target: HIV-1 MGRM-AE-004 Env (pseudovirus) (HIV-1)
[15] = target: HIV-1 MGRM-AG-003 Env (pseudovirus) (HIV-1)
[16] = target: HIV-1 92RW020 envelope (Env) on pseudovirus (HIV-1)
[17] = target: HIV-1 Env of isolate MGRM-A-010 (clade A pseudovirus) (HIV-1)
[18] = target: HIV-1 envelope glycoprotein (Env) of isolate MG RM-AG-005 (HIV-1)
[19] = target: HIV-1 Env of pseudovirus MGRM-F1-016 (HIV-1)
[20] = target: HIV-1 Env of pseudovirus MGRM-D-011 (HIV-1)
[21] = target: HIV-1 Env of pseudovirus MGRM-F1-006 (HIV-1)
[22] = target: HIV-1 Env of isolate 98CN006 (HIV-1)
[23] = target: HIV-1 Env of isolate 94 KE 105 (pseudovirus) (HIV-1)
[24] = target: HIV-1 Env of isolate MGRM-AE-001 (pseudovirus) (HIV-1)
[25] = target: HIV-1 Env of pseudovirus isolate MGRM-Chronic-B-003 (clade B) (HIV-1)
[26] = target: HIV-1 Env of isolate MGRM-C-017 (subtype C), on pseudovirus (HIV-1)
[27] = target: HIV-1 Env of isolate 98CN009 (HIV-1)
[28] = target: HIV-1 Env of isolate MG RM-A-008 (pseudovirus) (HIV-1)
[29] = target: HIV-1 Env of isolate MGRM-D-004 (HIV-1)
[30] = target: HIV-1 Env of isolate MGRM-D-003 (HIV-1)

PGT-142 (4995_E20) (antibody), sequence (VH): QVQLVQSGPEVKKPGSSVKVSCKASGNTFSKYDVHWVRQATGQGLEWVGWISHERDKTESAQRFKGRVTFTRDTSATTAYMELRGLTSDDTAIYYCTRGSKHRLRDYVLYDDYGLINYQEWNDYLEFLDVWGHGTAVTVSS
PGT-142 (4995_E20) (antibody), sequence (VL): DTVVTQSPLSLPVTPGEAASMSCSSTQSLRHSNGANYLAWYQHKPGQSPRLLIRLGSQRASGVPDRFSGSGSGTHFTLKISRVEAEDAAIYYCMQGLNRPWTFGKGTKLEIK
PGT-141 (4964_G22; 4993_K13) (antibody), sequence (VH): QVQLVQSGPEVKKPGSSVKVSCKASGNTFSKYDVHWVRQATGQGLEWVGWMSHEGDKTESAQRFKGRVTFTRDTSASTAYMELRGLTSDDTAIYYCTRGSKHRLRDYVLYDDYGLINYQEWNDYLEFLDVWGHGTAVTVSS
PGT-144 (4970_K22) (antibody), sequence (VH): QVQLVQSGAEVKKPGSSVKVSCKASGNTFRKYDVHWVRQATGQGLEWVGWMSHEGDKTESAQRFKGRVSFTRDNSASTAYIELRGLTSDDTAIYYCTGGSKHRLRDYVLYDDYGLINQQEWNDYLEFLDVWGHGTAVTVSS
PGT-144 (4970_K22) (antibody), sequence (VL): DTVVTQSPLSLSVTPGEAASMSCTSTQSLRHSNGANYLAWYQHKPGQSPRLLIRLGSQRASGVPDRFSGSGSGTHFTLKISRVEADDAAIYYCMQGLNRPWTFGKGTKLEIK
PGT-143 (4980_N08) (antibody), sequence (VH): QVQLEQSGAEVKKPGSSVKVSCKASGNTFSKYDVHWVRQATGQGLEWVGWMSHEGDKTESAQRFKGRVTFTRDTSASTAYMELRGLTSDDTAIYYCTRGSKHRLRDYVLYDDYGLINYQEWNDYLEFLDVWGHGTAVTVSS
PGT-143 (4980_N08) (antibody), sequence (VL): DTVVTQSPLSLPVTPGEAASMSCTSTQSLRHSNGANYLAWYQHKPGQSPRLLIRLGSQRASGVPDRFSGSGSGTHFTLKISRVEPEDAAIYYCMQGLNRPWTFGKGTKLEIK
PGT-145 (4995_P16) (antibody), sequence (VH): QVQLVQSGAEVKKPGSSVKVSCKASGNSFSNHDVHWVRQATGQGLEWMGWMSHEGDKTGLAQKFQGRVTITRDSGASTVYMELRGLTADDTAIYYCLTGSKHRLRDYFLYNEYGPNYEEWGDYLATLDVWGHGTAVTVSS
PGT-145 (4995_P16) (antibody), sequence (VL): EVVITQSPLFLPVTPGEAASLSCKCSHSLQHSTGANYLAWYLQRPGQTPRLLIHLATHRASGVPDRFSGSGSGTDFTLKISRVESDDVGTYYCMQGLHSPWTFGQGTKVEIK

Substance	IC50 (µg/ml), pseudovirus neutralization [1] [µg/mL]	IC50 (µg/ml), pseudovirus neutralization [2] [µg/mL]	IC50 (µg/ml), pseudovirus neutralization [3] [µg/mL]	IC50 (µg/ml), pseudovirus neutralization [4] [µg/mL]	IC50 (µg/ml), pseudovirus neutralization [5] [µg/mL]	neutralization IC50 [6] [µg/mL]	IC50 (µg/ml), pseudovirus neutralization [7] [µg/mL]	IC50 (µg/ml), pseudovirus neutralization [8] [µg/mL]	IC50 [9] [µg/mL]	IC50 (µg/ml), pseudovirus neutralization [10] [µg/mL]	neutralization IC50 [11] [µg/mL]	neutralization IC50 [12] [µg/mL]	IC50 (µg/ml), pseudovirus neutralization [13] [µg/mL]	IC50 (µg/ml), pseudovirus neutralization [14] [µg/mL]	IC50 (µg/ml), pseudovirus neutralization [15] [µg/mL]	neutralization IC50 [16] [µg/mL]	IC50 [18] [µg/mL]	IC50, pseudovirus neutralization [19] [µg/mL]	IC50, pseudovirus neutralization [20] [µg/mL]	IC50, pseudovirus neutralization [21] [µg/mL]	also measured
4E10 (antibody)	0.56	0.34	2.85	0.8	12.3	11.2	1.46	2.52	7.61	2.61	0.59	4.95	1.48	1.27	0.64	3.38	–	–	–	–	IC50 (µg/ml), pseudovirus neutralization [17]: 14.4 µg/mL
PGT-143 (4980_N08) (antibody)	–	–	–	–	–	–	–	–	–	–	–	–	–	–	–	–	1.11	> 50	> 50	12.3	–
PGT-142 (4995_E20) (antibody)	–	–	–	–	–	–	–	–	–	–	–	–	–	–	–	–	0.383	> 50	> 50	12.9	–
b12 (antibody)	> 50	> 50	0.94	0.89	4.17	41.1	7.04	13.3	> 50	> 50	4.25	0.06	> 50	> 50	> 50	> 50	–	–	–	–	IC50 (µg/ml), pseudovirus neutralization [17]: > 50 µg/mL
1495_C14 (PGC14) (antibody)	> 50	> 50	12	> 50	6	> 50	> 50	> 50	> 50	> 50	> 50	0.373	45	> 50	> 50	28.6	–	–	–	–	IC50 (µg/ml), pseudovirus neutralization [17]: > 50 µg/mL
PGT-144 (4970_K22) (antibody)	–	–	–	–	–	–	–	–	–	–	–	–	–	–	–	–	> 50	> 50	> 50	20.6	–
PGT-141 (4964_G22; 4993_K13) (antibody)	–	–	–	–	–	–	–	–	–	–	–	–	–	–	–	–	0.497	> 50	> 50	8.99	–
2G12 (antibody)	> 50	> 50	> 50	0.54	0.55	> 50	> 50	1.75	> 50	0.95	> 50	0.75	> 50	> 50	> 50	0.56	–	–	–	–	IC50 (µg/ml), pseudovirus neutralization [17]: 17 µg/mL
VRC01 (antibody)	–	–	–	–	–	–	–	–	–	–	–	–	–	–	–	–	0.091	0.517	0.075	2.86	IC50 (µg/mL), pseudovirus neutralization [22]: 0.644 µg/mL; IC50 (µg/mL), single-round pseudovirus neutralization [23]: 0.499 µg/mL; IC50 (µg/mL), single-round pseudovirus neutralization [24]: 0.167 µg/mL; IC50, pseudovirus neutralization [25]: 0.1 µg/mL; IC50, single-round pseudovirus neutralization [26]: 0.366 µg/mL; IC50 (µg/mL), pseudovirus neutralization [27]: 0.346 µg/mL; IC50 (µg/mL), single-round pseudovirus neutralization [28]: 0.303 µg/mL; IC50 (µg/mL), pseudovirus neutralization [29]: 1.25 µg/mL; IC50 (µg/mL), pseudovirus neutralization [30]: 2.06 µg/mL
PGT-145 (4995_P16) (antibody)	–	–	–	–	–	–	–	–	–	–	–	–	–	–	–	–	0.045	17.5	14.7	13.6	–
